One test deals with T1, IAPP fibrils (Homo sapiens (Human), UniProt P10997).
T1 peptide: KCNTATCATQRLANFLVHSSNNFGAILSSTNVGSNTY
Description: EuLISA on plate-immobilized fibrils (column heads of c9 and c10 seem swapped).

In another test the target is fibrillar Aβ1-40 peptide (Homo sapiens (Human), UniProt P05067). Description: EuLISA on plate-immobilized fibrils. The procedure:
High binding activated microtiter plate wells were coated with 400 ng of fibrillar Aβ1-40 peptide, which was prepared by aggregation in 10 mM PBS of Aβ1-40 peptide, previously disaggregated by the trifluoro acetic acid/hexafluoroisopropanol procedure [Adekar et al., J. Biol. Chem. 285, 1066-1074 (2010)]. After blocking with 1% bovine serum albumin (BSA), F1 was serially diluted in 10 mM PBS/1% BSA and applied in 100 μl aliquots to coated wells. After incubation for 1 hr, wells were washed, and incubated with biotinylated goat anti-human IgG as a secondary antibody for 1 hr. Thereafter bound HC F1 was determined with a Eu³⁺-streptavidine conjugate followed by the release enhancement reagent (EuLISA) and measuring the amount of Eu³⁺ by time-resolved fluorescence (Victor 1420 multilabel counter) against a standard curve established with known concentrations of Eu³⁺.

Test [1] has as its target dityrosine cross-linked Aβ preparation (CAPS) (Homo sapiens (Human), UniProt P05067, dityrosine cross-linked). Description: EuLISA on plate-immobilized CAPS.

B1: antibody heavy chain F1 (other)
heavy: AMDWTWSILFLVAAATGAHSQVQLVQSGAEVKKPGASVKVSCKASGYTFSSNGIIWVRQAPGQGLEWLGWISGYNGKTRYAQKVQGRVTITTDTSTSTAYMELRSLRSDDTAVYYCAREKTMVRGAISGYSDYWGQGTLVTVSSASTKGPSVFPLAPSSKSTSGGTAALGCLVKDYFPEPVTVSWNSGALTSGVHTFPAVLQSSGLYSLSSVVTVPSSSLGTQTYICNVNHKPSNTKVDKKRVEPKSCDKTHTCPPCPAPELLGGPSVFLFPPKPKDTLMISRTPEVTCVVVDVSHEDPEVKFNWYVDGVEVHNAKTKPREEQYNSTYRVVSVLTVLDHQDWLNGKEYKCKVSNKALPAPIEKTISKAKGQPREPQVYTLPPSREELMTKNQVSLTCLVKGFYPSDIAVEWESNGQPENNYKTTPPVLDSDGSFFLYSKLTVDKSRWQQGNVFSCSVMHEALHNHYTQKSLSLSPGK
As a reminder, the EC50 is the concentration needed to bring the measured effect to its halfway point. Higher therefore signals a less potent agent. In the case of B1, the results for the EC50 (in the test with IAPP fibrils; in the test with fibrillar Aβ1-40 peptide; in test [1]) were 40 nM, 23 nM and 28 nM, respectively.

Source of the values: patent US20110002945A1, “Use of immunoglobulin heavy and light chains or fragments thereof to bind to aggregated amyloidogenic proteins” (published 2011).
